The target of experiment [1] is T1, Mesothelin (MSLN) on MSLN-positive HCC70 human triple negative breast cancer cells (human, UniProt Q13421 296-598). As to the kind of experiment: cell-based or functional assay.
In experiment [2] the target is T2, Human MSLN recombinant protein (R&D systems) (human, UniProt Q13421 296-580, limits assumed).
T2 construct: Bought protein, 100 ng immobilized on immunosorbent plates; also called recombinant MSLN; recombinant human mesothelin
As to the kind of experiment: saturation radioligand binding on plate-immobilized recombinant human MSLN. On the procedure:
(§1) Human MSLN recombinant protein (100 ng, R&D systems) was immobilized on immunosorbent plates (Corning Costar Stripwell, Sigma Aldrich) overnight at 4° C., and blocked with 1% milk. Serial dilutions of ^99mTc-A1 and ^99mTc-C6 from 1 μM to 0.8 nM were incubated for 1 hour. Unbound activity was removed by 5 serial washes with PBS-Tween 0.1%. The radioactivity in each well was determined using a γ-counter (Wizard², Perkin Elmer). Unspecific binding was determined by incubation of ^99mTC-A1 or ^99mTc-C6 in empty wells. Results were corrected from background and decay, and the [^99mTc-A1] and [^99mTc-C6] binding curves were fitted using a nonlinear regression equation (specific binding: Y=B max*X/(KD+X) with X being the radioligand concentration) and using GraphPad Prism 6 software to determine KD values. Uptake was normalized to the Bmax for graphic representation of 3 independent experiments.

For experiment [3], the target named is T1, Mesothelin (MSLN) on MSLN-positive …. As to the kind of experiment: radioligand binding on cells in suspension, 40 nM 99mTc-A1, 1 h at 4 C, gamma counting. On the procedure: (§2) HCC70 and MDA-MB-231 cells were rinsed with PBS, detached using EDTA 5 mM, and resuspended at 200,000 cells per tube. Cells were incubated for 1 hour with PBS-BSA 1% and then with 40 nM of ^99mTc-A1 or 150 nM of ^99mTc-C6 for 1 h at 4° C., in the absence or presence of a 200-fold excess of unlabeled A1 or C6. Cell suspensions were centrifuged at 400 g during 5 min at 4° C., and washed 5-times with cold-PBS. Cells were then transferred to new tubes and radioactivity was determined using a γ-counter (Wizard², Perkin).

Experiment [4] concerns the target T2, Human MSLN recombinant protein (R&D …). As to the kind of experiment: saturation radioligand binding on plate-immobilized recombinant human MSLN, gamma counting, nonlinear fit. The method, then:
as §1

Experiment [5] shares this target. As to the kind of experiment: saturation radioligand binding on recombinant human MSLN (as told in the discussion); value told in the discussion; recombinant human MSLN. The method, then: as §1
Experiment [6] addresses T1, Mesothelin (MSLN) on MSLN-positive …. As to the kind of experiment: competition on HCC70 cells, 200-fold excess of unlabeled A1 against 40 nM 99mTc-A1 (competitor: 99mTc-A1). The method, then:
as §2

T1 sequence (Q13421 other isoform, or with tags, fused parts or gaps limits assumed): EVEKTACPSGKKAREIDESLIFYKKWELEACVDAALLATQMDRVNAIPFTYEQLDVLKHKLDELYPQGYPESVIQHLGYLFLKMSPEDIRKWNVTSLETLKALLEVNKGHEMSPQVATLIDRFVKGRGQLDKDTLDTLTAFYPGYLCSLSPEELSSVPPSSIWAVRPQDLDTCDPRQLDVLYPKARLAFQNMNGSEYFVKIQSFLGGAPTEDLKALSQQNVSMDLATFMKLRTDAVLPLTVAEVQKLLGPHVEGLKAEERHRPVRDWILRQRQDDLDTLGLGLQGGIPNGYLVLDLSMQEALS
T2 sequence (Q13421 other isoform, or with tags, fused parts or gaps limits assumed): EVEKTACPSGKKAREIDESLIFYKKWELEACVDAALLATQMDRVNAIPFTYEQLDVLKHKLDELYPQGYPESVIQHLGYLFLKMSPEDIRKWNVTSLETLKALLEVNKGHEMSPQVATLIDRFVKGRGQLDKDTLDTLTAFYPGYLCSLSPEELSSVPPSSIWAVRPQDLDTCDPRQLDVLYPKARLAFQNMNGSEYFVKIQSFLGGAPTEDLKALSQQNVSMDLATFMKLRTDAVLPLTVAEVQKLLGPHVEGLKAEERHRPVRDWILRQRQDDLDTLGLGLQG

B1: 99mTc-A1 (anti-mesothelin A1 single domain antibody radiolabeled with technetium-99m at its C-terminal hexahistidine tag) (VHH)
VHH: QVQLVQSGGGLVHPGGSLRLSCAASGIDLSLYRMRWYRQAPGKERDLVALITDDGTSYYEDSVKGRFTITRDNPSNKVFLQMNSLKPEDTAVYYCNAETPLSPVNYWGQGTQVTVSH
modifications: 99mTc-tricarbonyl at the C-terminal hexahistidine-tag (His-Tag)
notes: Labeled by the tricarbonyl method; also called radiolabeled A1 nanobody
For B1, in experiment [1], the “99mTc-A1 uptake in HCC70 tumors by SPECT quantification, with competition (150-fold excess of unlabeled A1)” value came out at 0.6 % ID/g; the “fold decrease in 99mTc-A1 uptake in HCC70 tumors by SPECT quantification, co-injection of a 150-fold excess of unlabeled A1” value was around 7 fold; the “fold decrease in 99mTc-A1 uptake in HCC70 tumors, ex vivo biodistribution, with excess of unlabeled A1” value is around 7 fold. In experiment [2], the “fold affinity against 99mTc-C6” value was above 2 fold. Besides, the “fold binding on HCC70 cells against MSLN-negative MDA-MB-231 cells” value in experiment [3] worked out at 7.9 fold. Besides, the Kd (usually the free concentration of one partner at which half of the binding sites on the other are occupied at equilibrium, for simple one-to-one binding) in experiment [4] amounted to 43.9 nM. Besides, the Kd in experiment [5] was found to be 35 nM.

B2: A1 anti-mesothelin single domain antibody, unlabeled (VHH)
VHH: QVQLVQSGGGLVHPGGSLRLSCAASGIDLSLYRMRWYRQAPGKERDLVALITDDGTSYYEDSVKGRFTITRDNPSNKVFLQMNSLKPEDTAVYYCNAETPLSPVNYWGQGTQVTVSH
notes: Same protein as in m1, without the radiolabel; also called unlabeled A1; A1 nanobody
For B2, in experiment [6], the “fold decrease in 99mTc-A1 binding to HCC70 cells” value was found to be 6 fold.
